Series [1] addresses condensin I holocomplex (CI) (Homo sapiens, UniProt O95347;Q9NTJ3;Q15021;Q9BPX3;Q15003 1-1197;1-1288;1-1401;1-1015;1-741). Put plainly: fluorescence polarization; no ATP; 75 mM NaCl; FP: 20 mM Tris pH 7.5, 75 mM NaCl, 2.5% glycerol, 1 mM DTT, room temp, 50 nM DNA; EMSA: 20 mM HEPES pH 8, 300 mM KCl, 5 mM MgCl2, 1 mM DTT, 10% glycerol, on ice; curtains: 40 mM Tris-HCl pH 7.5, 125 mM NaCl, 5 mM MgCl2, 1 mM DTT, 0.5 mg/mL BSA, 37 C. As to conditions: protein: recombinant; tags: 6xHis-SMC4; CAP-H 2xStrep; copies: 1;1;1;1;1; label: 6-FAM on reverse strand; blunt. In general terms: In fluorescence polarisation assays a small probe gives low polarisation when free and higher when bound to something large.

The target of series [2] is condensin II holocomplex (CII) (Homo sapiens, UniProt O95347;Q9NTJ3;P42695;Q86XI2;Q6IBW4 1-1197;1-1288;1-1498;1-1143;1-605). The series is described as above. The settings on record: protein: recombinant; tags: 6xHis-SMC4; CAP-H2 2xStrep; copies: 1;1;1;1;1; label: 6-FAM on reverse strand; blunt.

B1: 30-bp dsDNA, 6-FAM (dsDNA)
DNA 1: CTGTCACACCCTGTCACACCTGTCACAC
DNA 2: GTGTGACAGGTGTGACAGGGTGTGACAG
As a reminder, the Kd is the free concentration of one partner at which half of the binding sites on the other are occupied at equilibrium, for simple one-to-one binding. For B1, the Kd stood at 3000 ± 300 nM in series [1] and 1200 ± 100 nM in series [2].

Source of the values: publication PMC7335352.
